According to patent publication JP2021530247A:

Legend:
Bcl-2を発現しているライセート = Bcl-2を発現しているライセート (UniProt P10415); test: sandwich ELISA with the commercial reagents (taken as Bcl-2/100 capture, 4D7-biotin detector), lysate
[1] = target: 10ng/mLのタンパク質サンプル (rBcl-2; R&D Systems or in-house, not stated) (UniProt P10415); test: sandwich ELISA with the commercial reagents (taken as Bcl-2/100 capture, 4D7-biotin detector), 10 ng/mL protein

OD (Bcl-2を発現しているライセート): 0.24 OD | OD [1]: 0.67 OD
Substance: mAb Bcl-2/100 (antibody)
